Changes are numbered by the printed parent chain. Each block holds one binder with its values, some of them ahead of it.
Columns and labels:
[1] = biological target: T1, hen egg lysozyme (Gallus gallus (hen), UniProt P00698); assay: SPR; Biacore T200; HEL immobilised on CM5 chip (200 RU); VHH flowed over; 25 °C; PBS with 0.005% Tween 20; global fit to a 1:1 binding model; conditions: both partners purified
T1 construct: hen egg lysozyme (lysozyme C), bought from Wako Pure Chemical; also called HEL; source: bought: Wako Pure Chemical (Cat. No. 126-02671), used without further purification
Procedure, shortened: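 Binding of the His6-tagged single-domain antibody, expressed in E. coli BL21(DE3) and purified by Ni-NTA and size-exclusion chromatography, was measured by surface plasmon resonance on a Biacore T200 against hen egg lysozyme immobilised on a CM5 chip (200 RU). Runs were at 25 °C in PBS with 0.005% Tween 20, with 300 s contact, 600 s dissociation and regeneration in 1.0 M Arg-HCl pH 4.4. Antibody concentrations were adjusted per mutant. Kd, kon and koff came from global fitting to a 1:1 binding model in BiaEvaluation.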

[2] = biological target: T1, hen egg lysozyme; assay: SPR; as a1, but KD from the responses in equilibrium (Scatchard plot, 1:1 model); HEL immobilised; 25 °C; PBS with 0.005% Tween 20; conditions: both partners purified
[3] = biological target: T1, hen egg lysozyme; assay: SPR; HEL immobilised; measured at several temperatures; van't Hoff analysis (non-linear regression); PBS with 0.005% Tween 20; KD given for 25 °C from the van't Hoff free energy; conditions: both partners purified
[4] = biological target: T1, hen egg lysozyme; assay: ITC; iTC200; 25 °C; PBS; VHH (10 uM) in the cell titrated with HEL (100 uM); 1:1 binding model; conditions: both partners purified
[5] = biological target: T2, hen egg lysozyme (hen, UniProt P00698 19-147); assay: SPR; HEL immobilised on CM5 chip (200 RU), VHH flowed over, 30 °C, PBS with 0.005% Tween 20, steady-state responses (Scatchard plot), 1:1 binding model; conditions: both partners purified
T2 construct: hen egg lysozyme (HEL), bought, used without further purification; also called HEL; source: bought: Wako Pure Chemical (Cat. No. 126-02671)

[6] = biological target: T2, hen egg lysozyme; assay: SPR; HEL immobilised on CM5 chip (200 RU), VHH flowed over, 18 °C, PBS with 0.005% Tween 20, steady-state responses (Scatchard plot), 1:1 binding model; conditions: both partners purified
[7] = biological target: T2, hen egg lysozyme; assay: SPR; HEL immobilised on CM5 chip (200 RU), VHH flowed over, multi-cycle, 18 °C, PBS with 0.005% Tween 20, global fit to a 1:1 binding model; conditions: both partners purified
[8] = biological target: T2, hen egg lysozyme; assay: ITC; iTC200, 25 °C, PBS; VHH (10 µM) in the cell titrated with HEL (100 µM); 1:1 binding model; two independent measurements; conditions: both partners purified
[9] = biological target: T2, hen egg lysozyme; assay: SPR; HEL immobilised on CM5 chip (200 RU), VHH flowed over, 26 °C, PBS with 0.005% Tween 20, steady-state responses (Scatchard plot), 1:1 binding model; conditions: both partners purified
[10] = biological target: T2, hen egg lysozyme; assay: SPR; HEL immobilised on CM5 chip (200 RU), VHH flowed over, multi-cycle, 26 °C, PBS with 0.005% Tween 20, global fit to a 1:1 binding model; conditions: both partners purified
[11] = biological target: T2, hen egg lysozyme; assay: SPR; HEL immobilised on CM5 chip (200 RU), VHH flowed over, 22 °C, PBS with 0.005% Tween 20, steady-state responses (Scatchard plot), 1:1 binding model; conditions: both partners purified
[12] = biological target: T2, hen egg lysozyme; assay: SPR; HEL immobilised on CM5 chip (200 RU), VHH flowed over, multi-cycle, 22 °C, PBS with 0.005% Tween 20, global fit to a 1:1 binding model; conditions: both partners purified
[13] = biological target: T2, hen egg lysozyme; assay: SPR; HEL immobilised on CM5 chip (200 RU), VHH flowed over, multi-cycle, 14 °C, PBS with 0.005% Tween 20, global fit to a 1:1 binding model; conditions: both partners purified
[14] = biological target: T2, hen egg lysozyme; assay: SPR; HEL immobilised on CM5 chip (200 RU), VHH flowed over, multi-cycle, 10 °C, PBS with 0.005% Tween 20, global fit to a 1:1 binding model; conditions: both partners purified
[15] = biological target: T2, hen egg lysozyme; assay: SPR; HEL immobilised on CM5 chip (200 RU), VHH flowed over, 10 °C, PBS with 0.005% Tween 20, steady-state responses (Scatchard plot), 1:1 binding model; conditions: both partners purified
[16] = biological target: T2, hen egg lysozyme; assay: SPR; HEL immobilised on CM5 chip (200 RU), VHH flowed over, 14 °C, PBS with 0.005% Tween 20, steady-state responses (Scatchard plot), 1:1 binding model; conditions: both partners purified
[17] = biological target: hen egg lysozyme (hen) (UniProt P00698); assay: SPR; HEL immobilised; measured at several temperatures; van't Hoff analysis (non-linear regression); PBS with 0.005% Tween 20; KD given for 25 °C from the van't Hoff free energy
[18] = biological target: hen egg lysozyme (hen) (UniProt P00698); assay: SPR; as a1, but KD from the responses in equilibrium (Scatchard plot, 1:1 model); HEL immobilised; 25 °C; PBS with 0.005% Tween 20
[19] = biological target: hen egg lysozyme (hen) (UniProt P00698); assay: ITC; iTC200; 25 °C; PBS; VHH (10 uM) in the cell titrated with HEL (100 uM); 1:1 binding model
[20] = biological target: hen egg lysozyme (hen) (UniProt P00698); assay: SPR; Biacore T200; HEL immobilised on CM5 chip (200 RU); VHH flowed over; 25 °C; PBS with 0.005% Tween 20; global fit to a 1:1 binding model

Sequence of hen egg lysozyme (hen) (P00698 19-147): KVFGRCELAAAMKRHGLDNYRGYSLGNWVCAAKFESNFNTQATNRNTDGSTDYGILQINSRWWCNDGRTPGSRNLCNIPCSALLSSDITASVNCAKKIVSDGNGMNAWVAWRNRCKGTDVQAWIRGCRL
T1 sequence (P00698 19-147): as above
T2 sequence (P00698 19-147): as above

B1: D3-L11 T55A (VHH)
VHH: DVQLVESGGGSVQAGGSLRLSCAASGSTDSIEYMTWFRQAPGKAREGVAALYTHAGNTYYTDSVKGRFTISQDKAKNMAYLRMDSVKSEDTAIYTCGATRKYVPVRFALDQSSYDYWGQGTQVTVSS
notes: as the VHH chain of m2 with the stated change; source: E. coli BL21(DE3), purified (Ni-NTA, SEC)
Kd [1]: 2.99 nM | koff [1]: 0.0113 s⁻¹ | kon [1]: 3.77e+06 M⁻¹ s⁻¹

B2: D3-L11 E32A (VHH)
VHH: B1 VHH with E32A, A55T
notes: as for B1
Kd [1]: 1.87 nM | koff [1]: 0.012 s⁻¹ | kon [1]: 6.43e+06 M⁻¹ s⁻¹

B6: D3-L11 Y52A (VHH)
VHH: B1 VHH with Y52A, A55T
notes: the substitution is still to be applied; source: E. coli BL21(DE3), purified (Ni-NTA, SEC)
Kd [5]: 142 ± 10 nM | Kd [6]: 83.4 ± 6.5 nM | Kd [7]: 33 nM | koff [7]: 0.0731 s⁻¹ | kon [7]: 2.21e+06 M⁻¹ s⁻¹ | Kd [8]: 1000 nM | stoichiometry N [8]: 0.93 | Kd [9]: 119 ± 9 nM | Kd [10]: 52.9 nM | koff [10]: 0.144 s⁻¹ | kon [10]: 2.72e+06 M⁻¹ s⁻¹ | Kd [11]: 99.2 ± 7.4 nM | Kd [12]: 40.8 nM | koff [12]: 0.102 s⁻¹ | kon [12]: 2.5e+06 M⁻¹ s⁻¹ | Kd [13]: 26.5 nM | koff [13]: 0.0515 s⁻¹ | kon [13]: 1.94e+06 M⁻¹ s⁻¹ | Kd [14]: 21.2 nM | koff [14]: 0.037 s⁻¹ | kon [14]: 1.74e+06 M⁻¹ s⁻¹ | Kd [15]: 60.5 ± 4.3 nM | Kd [16]: 71.4 ± 5.3 nM

Now from value to binder:

Kd [1]: 1.63 nM | koff [1]: 0.0147 s⁻¹ | kon [1]: 8.99e+06 M⁻¹ s⁻¹
B3: D3-L11 F107A (VHH)
VHH: B1 VHH with A55T, F107A
notes: as for B1

Kd [2]: 44.8 ± 19 nM | Kd [1]: 13 nM | koff [1]: 0.226 s⁻¹ | kon [1]: 1.74e+07 M⁻¹ s⁻¹
B4: D3-L11 P104A (VHH)
VHH: B1 VHH with A55T, P104A
notes: as for B1

dH (van't Hoff) [3]: -17 kcal/mol | dH [4]: -21.4 ± 0.6 kcal/mol | Kd [1]: 0.129 nM | koff [1]: 0.000785 s⁻¹ | kon [1]: 6.1e+06 M⁻¹ s⁻¹
B5: D3-L11 (VHH)
VHH: B1 VHH with A55T
notes: VHH D3-L11 specific for HEL; Synthetic gene in pRA2 with a pelB signal peptide at the N-terminus and a His6-tag at the C-terminus; also called WT; WT antibody; source: E. coli BL21(DE3), purified (Ni-NTA, SEC)

Kd [5]: 867 ± 70 nM | Kd [6]: 429 ± 48 nM | Kd [17]: 413 nM | dH (van't Hoff) [17]: -12 kcal/mol | Kd [7]: 191 nM | koff [7]: 0.309 s⁻¹ | kon [7]: 1.62e+06 M⁻¹ s⁻¹ | Kd [8]: 1800 nM | stoichiometry N [8]: 1.23 | Kd [18]: 635 nM | Kd [9]: 658 ± 64 nM | Kd [10]: 418 nM | koff [10]: 0.83 s⁻¹ | kon [10]: 1.99e+06 M⁻¹ s⁻¹ | Kd [11]: 529 ± 55 nM | Kd [12]: 233 nM | koff [12]: 0.479 s⁻¹ | kon [12]: 2.06e+06 M⁻¹ s⁻¹ | ddH against WT antibody (ITC) [19]: 4.8 kcal/mol | Kd [20]: 295 nM | koff [20]: 0.686 s⁻¹ | kon [20]: 2.32e+06 M⁻¹ s⁻¹ | Kd [13]: 146 nM | koff [13]: 0.201 s⁻¹ | kon [13]: 1.38e+06 M⁻¹ s⁻¹ | Kd [14]: 100 nM | koff [14]: 0.116 s⁻¹ | kon [14]: 1.15e+06 M⁻¹ s⁻¹ | Kd [15]: 303 ± 32 nM | Kd [16]: 348 ± 42 nM
B7: D3-L11 Y102A (VHH)
VHH: B1 VHH with A55T, Y102A
notes: as for B6
